Experimental findings from patent publication US20190352343A1 (AUCKLAND UNISERVICES, published 2019) are described below.

In test [1] the target is Cpe0147^439-563 truncated protein domain (Clostridium perfringens). The test can be described thus: SDS-PAGE, ester bond ligation in the presence of glycerol.
Test [2] shares this target. The test can be described thus: SDS-PAGE, ester bond ligation in the presence of calcium.

As for Cpe0147^565-587 synthetic peptide, the percent of protein converted (ester bond formed) in test [1] came to 70%; in test [2] it was 40%.
